Test results published in patent US20170029894A1 (Novartis, published 2017).

Experiments:
Experiment in all cases: peptide array of 15-mer IL-13 peptides
[1] = target: IL-13 peptide 3 (…) (human)
[2] = target: IL-13 peptide 16 (…) (human)
[3] = target: IL-13 peptide 19 (…) (human)
[4] = target: IL-13 peptide 30 (…) (human)
[5] = target: IL-13 peptide 27 (…) (human)
[6] = target: IL-13 peptide 22 (…) (human)
[7] = target: IL-13 peptide 28 (…) (human)
[8] = target: IL-13 peptide 20 (…) (human)
[9] = target: IL-13 peptide 14 (…) (human)
[10] = target: IL-13 peptide 17 (…) (human)
[11] = target: IL-13 peptide 21 (…) (human)
[12] = target: IL-13 peptide 25 (…) (human)
[13] = target: IL-13 peptide 26 (…) (human)
[14] = target: IL-13 peptide 24 (…) (human)
[15] = target: IL-13 peptide 10 (…) (human)
[16] = target: IL-13 peptide 29 (…) (human)
[17] = target: IL-13 peptide 12 (…) (human)
[18] = target: IL-13 peptide 11 (…) (human)
[19] = target: IL-13 peptide 2 (…) (human)
[20] = target: IL-13 peptide 1 (…) (human)
[21] = target: IL-13 peptide 23 (…) (human)
[22] = target: IL-13 peptide 18 (…) (human)
[23] = target: IL-13 peptide 13 (…) (human)
[24] = target: IL-13 peptide 15 (…) (human)

control unrelated human antibody
Corrected Mean signal intensity (Light Unit) [1]: -7.3 Light Unit | Corrected Mean signal intensity (Light Unit) [2]: 1 Light Unit | Corrected Mean signal intensity (Light Unit) [3]: 15 Light Unit | Corrected Mean signal intensity (Light Unit) [4]: -13 Light Unit | Corrected Mean signal intensity (Light Unit) [5]: -10.5 Light Unit | Corrected Mean signal intensity (Light Unit) [6]: 123 Light Unit | Corrected Mean signal intensity (Light Unit) [7]: -6 Light Unit | Corrected Mean signal intensity (Light Unit) [8]: 26 Light Unit | Corrected Mean signal intensity (Light Unit) [9]: 1 Light Unit | Corrected Mean signal intensity (Light Unit) [10]: 18.7 Light Unit | Corrected Mean signal intensity (Light Unit) [11]: 101 Light Unit | Corrected Mean signal intensity (Light Unit) [12]: -24.7 Light Unit | Corrected Mean signal intensity (Light Unit) [13]: 3.7 Light Unit | Corrected Mean signal intensity (Light Unit) [14]: 3.3 Light Unit | Corrected Mean signal intensity (Light Unit) [15]: -6.5 Light Unit | Corrected Mean signal intensity (Light Unit) [16]: -17 Light Unit | Corrected Mean signal intensity (Light Unit) [17]: 19 Light Unit | Corrected Mean signal intensity (Light Unit) [18]: -5 Light Unit | Corrected Mean signal intensity (Light Unit) [19]: -9 Light Unit | Corrected Mean signal intensity (Light Unit) [20]: 44.3 Light Unit | Corrected Mean signal intensity (Light Unit) [21]: 23 Light Unit | Corrected Mean signal intensity (Light Unit) [22]: 12.5 Light Unit | Corrected Mean signal intensity (Light Unit) [23]: -1.5 Light Unit | Corrected Mean signal intensity (Light Unit) [24]: 1 Light Unit
